Data: article doi:10.1101/2024.06.26.600769 (bioRxiv, 2024)
No end group written: not given here.

How the values were obtained:
[1] = target: T1, E. coli β-clamp (bacterial DNA sliding clamp), His6-tagged (E. coli, UniProt P0A988 1-366); test: ITC
[2] = target: T1, E. coli β-clamp (bacterial DNA sliding …); test: NMR titration

T1 sequence (P0A988 whole entry): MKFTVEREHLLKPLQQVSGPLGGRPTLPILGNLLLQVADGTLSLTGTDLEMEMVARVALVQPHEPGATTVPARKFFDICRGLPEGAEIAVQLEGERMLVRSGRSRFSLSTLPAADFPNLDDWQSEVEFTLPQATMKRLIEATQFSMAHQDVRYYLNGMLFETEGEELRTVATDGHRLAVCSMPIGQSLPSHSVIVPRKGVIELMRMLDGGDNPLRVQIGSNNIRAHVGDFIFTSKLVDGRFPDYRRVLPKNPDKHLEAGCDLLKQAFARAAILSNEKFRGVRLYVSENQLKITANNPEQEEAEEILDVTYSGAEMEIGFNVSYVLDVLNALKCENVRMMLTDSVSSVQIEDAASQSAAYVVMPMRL

Binder	binding result [1]	binding result [2]
DWRGLIGSEQVELEFD	binds	–
GWATQVDGTQMSLLSV (not fully specified (C-terminus); printed as GWATQVDGTQMSLLSV-NH2)	–	binds
GWGEAPVCAQPLLIPL (not fully specified (C-terminus); printed as GWGEAPVCAQPLLIPL-NH2)	–	binds
GWLDPQMERQLVLGL [pol IV* peptide, 15-mer of the polymerase IV C-terminus with an N-terminal Trp (GWLDPQMERQLVLGL)]	–	binds
